Test results reported in publication PMC4027978.

Key:
Number and Brightness = details: other: Number and Brightness (N&B) analysis
[1] = target: GFP-FR (Folate Receptor), GPI-anchored, in MDCK cells; assay: Number and Brightness
GFP-FR, in CHO cells = assay: Number and Brightness

average B value (brightness) [1] | average B value (brightness) (GFP-FR, in CHO cells) | percent of GFP-FR in clusters of 3 to 4 or 5 molecules (GFP-FR, in CHO cells) | Substance | percent of GFP-FR in aggregates of three-four molecules (Number and Brightness)
1.29 |  |  | GFP-FR (Folate Receptor), GPI-anchored, in MDCK cells | about 30-35% of GFP-FR
 | 1.36 | 50% | GFP-FR, in CHO cells | 
